Measurements: patent US20120282173A1 (FORERUNNER PHARMA RESEARCH, published 2012)

Columns and labels:
[1] = target: T1, HB-EGF expressed on the cell membrane (proHB-EGF), from pMCN_HB-EGF in DG44 and SKOV-3 cells or intrinsic in … (human, UniProt Q99075 20-208); test: FACS on HB-EGF_DG44 cells, FITC-labeled anti-human IgG, Geo-Mean against concentration; the text says ED50, about
T1 construct: Full-length human HB-EGF without the cleavage-site mutation

[2] = target: T2, active-form HB-EGF protein (R&D Systems, Inc., 259-HE) (human, UniProt Q99075 63-148); test: ELISA on plate coated with 1 ug/mL HB-EGF protein (R&D 259-HE), AP-labeled anti-human IgG; the text says ED50, about
T2 construct: Bought protein; also called sHB-EGF; secretory HB-EGF

[3] = target: T2, active-form HB-EGF protein (R&D …); test: cell-based or functional assay
[4] = target: proHB-EGF mutated at the protease cleavage site, expressed on Ba/F3 cells (HB-EGF_Ba/F3) (human) (UniProt Q99075); test: FACS, hybridoma culture supernatant on HB-EGF_Ba/F3 cells, EXP. 2 (no-mAb 6.9)
[5] = target: proHB-EGF mutated at the protease cleavage site, expressed on Ba/F3 cells (HB-EGF_Ba/F3) (human) (UniProt Q99075); test: FACS, hybridoma culture supernatant on HB-EGF_Ba/F3 cells, EXP. 1 (no-mAb 19.1)
[6] = target: T1, HB-EGF expressed on the cell membrane …; test: cell-based or functional assay

T2 sequence (Q99075 63-148 limits assumed): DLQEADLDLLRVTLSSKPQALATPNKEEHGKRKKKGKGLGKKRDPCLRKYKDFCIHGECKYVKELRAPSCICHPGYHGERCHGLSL
T1 sequence (Q99075 20-208 limits assumed): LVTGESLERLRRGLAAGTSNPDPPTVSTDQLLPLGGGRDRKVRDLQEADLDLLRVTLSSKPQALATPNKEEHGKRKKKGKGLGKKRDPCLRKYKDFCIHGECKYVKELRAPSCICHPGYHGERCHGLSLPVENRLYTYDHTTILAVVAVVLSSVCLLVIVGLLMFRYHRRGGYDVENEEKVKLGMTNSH

B1: chHE39, human chimeric antibody derived from HE39 antibody (antibody, V domains shown)
VH: EVQLQQSGPELMKPGASVKMSCKASGYIFTDYYMNWVKQSHGKSLEWIGRVNPNNGGTSYSQKFKDKATLTVDKSLNTAYMQVNSLTSEDSAVYYCARIYYGGSDWGQGTTLTVSS
VL: EIVMTQTPLSLSVTIGQPASISCKSSQSLLYTTGKTYLNWLQQRPGQAPKHLMYQVSKLVPGIPDRFSGSGSETDFTLKISRVEAEDLGVYYCLQGTYYPHTFGSGTKLEIKR
notes: Mouse HE39 variable regions linked to human IgG1 constant regions
B1 gave an EC50 [1] of 5.3 nM and an EC50 [2] of 0.42 nM.

B2: HC-15 antibody (antibody, V domains shown)
VH: EVQLQQSGPELVKPGASVKISCKASGYSFTGYYMHWVKQSPEKRLEWIGEINPRTGITTYNQKFKAKATLTVDKSSSTAYMQLKSLTSEDSAVYYCARVGSSGPFTYWGQGTLVTVSA
VL: DIVMTQSPSSLSVSAGDKVTMSCKSSQSLLNSRNQKNYLAWYQQKPWQPPKLLIYGASTRESGVPDRFTGSGSGTDFTLTISSVQAEDLAVYYCQNDYSYPFTFGTGTKLEIK
For B2, the “EC50 of the growth-inhibiting effect on EGFR_Ba/F3 cells” value [3] was 3.8 nM, the FACS (GEO-mean) [4] was 234 GEO-mean and the FACS (GEO-mean) [5] was 594 GEO-mean.

B3: saporin-labeled HC-15 antibody (HC-SAP) (antibody, V domains shown)
VH: EVQLQQSGPELVKPGASVKISCKASGYSFTGYYMHWVKQSPEKRLEWIGEINPRTGITTYNQKFKAKATLTVDKSSSTAYMQLKSLTSEDSAVYYCARVGSSGPFTYWGQGTLVTVSA
VL: DIVMTQSPSSLSVSAGDKVTMSCKSSQSLLNSRNQKNYLAWYQQKPWQPPKLLIYGASTRESGVPDRFTGSGSGTDFTLTISSVQAEDLAVYYCQNDYSYPFTFGTGTKLEIK
modifications: antibody labeled with an average of 2.4 saporin molecules; sites not stated
For B3, the “EC50 of cell death induction, ES-2 cells (WST-8)” value [6] was 0.09 nM, the “EC50 of cell death induction, MCAS cells (WST-8)” value [6] was 0.86 nM and the “EC50 of cell death induction, SKM-1 cells (WST-8)” value [6] was 0.02 nM. The “EC50 of cell death induction, THP-1 cells (WST-8)” value [6] was 0.01 nM and the “EC50 of cell death induction, U937 cells (WST-8)” value [6] was 0.33 nM.

B4: chHC15, human chimeric antibody derived from HC15 antibody (antibody, human IgG1, kappa, V domains shown)
VH: EVQLQQSGPELVKPGASVKISCKASGYSFTGYYMHWVKQSPEKRLEWIGEINPRTGITTYNQKFKAKATLTVDKSSSTAYMQLKSLTSEDSAVYYCARVGSSGPFTYWGQGTLVTVSA
VL: DIVMTQSPSSLSVSAGDKVTMSCKSSQSLLNSRNQKNYLAWYQQKPWQPPKLLIYGASTRESGVPDRFTGSGSGTDFTLTISSVQAEDLAVYYCQNDYSYPFTFGTGTKLEIKR
B4 gave an EC50 [1] of 3.3 nM and an EC50 [2] of 0.21 nM.
